Test results as given in FireProtDB (doi:10.1021/bi982078m).
Where “and” joins values, the source holds several entries; their conditions need not be identical. Identical values can stand only once.

Settings: Equus caballus, pH 6, 25 °C, Absorbance, cacodylate 0.03 M, reversible: yes

Sequence of Cytochrome c wild type, P00004 (P00004 whole entry): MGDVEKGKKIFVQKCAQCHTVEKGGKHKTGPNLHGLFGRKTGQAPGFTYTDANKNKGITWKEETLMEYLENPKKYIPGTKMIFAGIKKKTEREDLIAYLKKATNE

For Cytochrome c wild type, P00004, the denaturant m value (GdnHCl, KCl 0.1-1.0 M) was 3.31 kcal/mol/M, the “denaturant midpoint (higher = more stable)” value (GdnHCl, KCl 0.1-1.0 M) was 2.47 M and the unfolding free energy (GdnHCl, KCl 0.1-1.0 M) was 8.18 kcal/mol. The denaturant m value (Urea, KCl 0.1-1.0 M) was 1.28 kcal/mol/M, the “denaturant midpoint (higher = more stable)” value (Urea, KCl 0.1-1.0 M) was 6.26 M and the unfolding free energy (Urea, KCl 0.1-1.0 M) was 8.02 kcal/mol. For the same substance, the denaturant m value (Urea, KCl 0.1 M) was 1.25 kcal/mol/M and 1.37 kcal/mol/M.
